According to the nanobody polyreactivity screen of Harvey et al. (2022):

test: yeast display, Sf9 membrane polyspecificity reagent, FACS + sequencing; frameworks hold sequencing errors
Outline: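 In a synthetic yeast display library (Saccharomyces cerevisiae BJ5465), nanobody expression was induced with galactose for 36–48 hours. FACS gates were set low and high (top ~1%) using anti-HA fluorescence for expression and streptavidin fluorescence for binding of the Sf9 membrane reagent. Each polyreactivity label is drawn from the gate of origin.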

| Sequence | polyreactivity (PSR sort gate) |
| --- | --- |
| QVQLVESGGGLVQAGGSLRLSCAASGSIIPLYAMGWYRQAPGKERELVAAISRRGGSTYYADSVKGRFTISRDNAKNTVYLQMNSLKPEDTAVYYCAVDTPSPSRGPRFNYWGQGTQVTVSS | high polyreactivity |
| QVQLVESGGGLVQAGGSLRLSCAASGSIIPLYAMGWYRQAPGKERELVATINRRTGSTYADSVKGRFTISRDNAKNTVYLQMNSLKPEDTAVYYCNAADNYVRFYKTRIYNYWGQGTQVTVSS | high polyreactivity |
| QVQLVESGGGLVQAGGSLRLSCAASGSIIPYYAMGWYRQAPGKERELVAAISNSGGRTYYADSVKGRFTISRDNAKNTVYLQMNSLKPEDTAVYYCNAVPFYSKYDYWGQGTQVTVSS | high polyreactivity |
| QVQLVESGGGLVQAGGSLRLSCAASGSIIRGNAMGWYRQAPGKERELVAAISKRGGSTYYADSVKGRFTISRDNAKNTVYLQMNSLKPEDTAVYYCASDLPAALGFDYWGQGTQVTVSS | high polyreactivity |
| QVQLVESGGGLVQAGGSLRLSCAASGSIIRGYAIGWFRPAPGKERELVAAITSSGGSTYYADSVKGRFTISRDNAKNTVYLQMNSLKPEETAVYYCTKYRYSYKYNYWGQGTQVTVSS | high polyreactivity |
| QVQLVESGGGLVQAGGSLRLSCAASGSIIRHNVMVWYRQAPGKERELVAAISGGGGRTYYADSVKGRFTISRDNAKNTVSLQMNRLKPEDTAVYYCNAYVGLSEGDYWGQGTQVTVSS | high polyreactivity |
| QVQLVESGGGLVQAGGSLRLSCAASGSIIRNAMGWYRQAPGKERELVAAINWSGGSTYYADSVKGRFTISRDNAKNTVYLQMNSLKPEDTAVYYCNKVRGTVHATRRNGDYWGQGTQVTVSS | high polyreactivity |
| QVQLVESGGGLVQAGGSLRLSCAASGSIISFNTMGWYRQPPGKEREFVASIRRRGGSTYYADSVKGRFTISRDNAKNTVYLQMNSLKPEDTAVYYCAKANPHYVISDGVYHPRGGYWGQGTQVTVSS | low polyreactivity |
| QVQLVESGGGLVQAGGSLRLSCAASGSIISRNAMGWYRQAPGKERELVAAITSSGDSTYYADSVKGRFTISRDNAKNTVYLQMNSLKPEDTAVYYCNARAYRRKRYDYWGQGTQVTVSS | high polyreactivity |
| QVQLVESGGGLVQAGGSLRLSCAASGSIISWYVMGWYRQAPGKERELVAAITWGGGSRYYADSVKGRFTISRDNAKNTVYLQMNSLKPEDTAVYYCEFDYWGQGTQVSVSS | low polyreactivity |
| QVQLVESGGGLVQAGGSLRLSCAASGSIISYNAMGWYRQAPGKERELVAGIDLGDGTTYYADSVKGRFTISRDNAKNTVYLQMNSLKPDDTAVYYCNADIQIRPYGYAGTSTDEGLGYWGQGTQVTVSS | low polyreactivity |
| QVQLVESGGGLVQAGGSLRLSCAASGSIISYYAMGWYRQAPGKERELVAAISRGGGRTYYADSVKGRFTISRDNAKNTVYLQMNSLKPEDTAVYYCAVTPVRFASGGAWMDYWGQGTQVTVSS | high polyreactivity |
| QVQLVESGGGLVQAGGSLRLSCAASGSIIWLYAMGWYRQAPGKERELVAAISSGGSTYYADSVKGRFTISRDNAKNTVYLQMNSLKPEDTAVYYCAADYWSQSDWWDLTEYEYWGLGTQVTVSS | high polyreactivity |
| QVQLVESGGGLVQAGGSLRLSCAASGSIIWRNAMGWYIQAPGKERELVAAISYSGGSTYYADSVKGRFTISRDNAKNTVYLQMNSLKPEDTAVYYCAARTSYYVYRHPSGRYDYWGQGSQVTVSS | low polyreactivity |
| QVQLVESGGGLVQAGGSLRLSCAASGSIIYFYAMGWYRPAPGKERELVAAISITSASTYYADSVKGRFTISRDNAKNTVYLQMNSLKPEDTAVYYCAAEYYYVDWIYDYWGQGTQVTVSS | high polyreactivity |
| QVQLVESGGGLVQAGGSLRLSCAASGSIIYNNAMGWYRQAPGKERELVAAIRSTGTRTYYADSVKGRFTISRDNAKNTVYLQMNSLKPEDTAVYYCAVGDYGLWSYVYWGQGTQVTVSS | low polyreactivity |

| Sequence | polyreactivity (PSR sort gate) |
| --- | --- |
| QVQLVESGGGLVQAGGSLRLSCAASGSIIYYAMGWYRQAPGKEREFVAAITKSGGSTYYADSVKGRFTFSRDNAKNTVYLQMNSLKPEDTAVYYCAARGTWAGFYYWGQGTQVTLSS | high polyreactivity |
| QVQLVESGGGLVQAGGSLRLSCAASGSIKQNSMGWYRQAPGKERELVAAIDWDGSSTYYADSVKGRFTISRDNAKNTVYLQMNSLKPEDTAVYYCNTDYTGPDGTDEYDYWGQVTQVTVSS | low polyreactivity |
| QVQLVESGGGLVQAGGSLRLSCAASGSILAGYAMGWYRQAPGKERELVAAITSGGGSTYYADSVKGRFTISSDNAKITVYLQMNSLKAEDTAVYYCARDSGYYYDEYYYWGQGTKVTVSS | low polyreactivity |
| QVQLVESGGGLVQAGGSLRLSCAASGSILCLNAMGWYRQAPGKERELVADITRGGSTYYADSVKGRFTISRDNAKNTVYLQMNSLKPEDTAVYYCAADAYTGQIPYYYFEHYYWGQGTQVTVSS | high polyreactivity |
| QVQLVESGGGLVQAGGSLRLSCAASGSILDIYAMGWYRQAPGKERELVAGISTSGGSTYYADSVKGRFTISRDNAKNTVYLQMNSLNPEDTAVYYCAKDYGYQGLTRTLYCAYLEYDYWGQGTQVTVSS | low polyreactivity |
| QVQLVESGGGLVQAGGSLRLSCAASGSILDPNAMGWYRQAPGKERELVASISRGDNTYYADSVKGRFTISRDNAKNTVYFQMNSLKPEDTAVYDCAADYSWVVWHDYWGQGTQVTVSS | low polyreactivity |
| QVQLVESGGGLVQAGGSLRLSCAASGSILDSNAMGWYRQAPGKERELVAAITSGGSTYYADSVKGRFTISRDNAKNTVYLQMNSLKPEDTAVYFCAAAFLGYGAVQPSYEGGYWGQGTQVTVSS | low polyreactivity |
| QVQLVESGGGLVQAGGSLRLSCAASGSILDYNTMGWYIQAPGKERELVAAIDDDSTYYADSVKGRFTISRDNAKNTVYLQMNSLKPEDTAVYYSAVDWYYGDTYGYYYWYDYWGQGTQVTVSS | high polyreactivity |
| QVQLVESGGGLVQAGGSLRLSCAASGSILGANVMGWYRQAPGKERELVASISKSGGNTFYADSVKGRFTISRDNAKNTVYLQLNRLKPEDTAVYYCAKRAHRYSYRYTYDYWGQGTQVTVSS | low polyreactivity |
| QVQLVESGGGLVQAGGSLRLSCAASGSILGDNAMGWYRQAPGKERELVAAISYRGGSTYADSVKGRFTISRDNAKNTVYLQMNRLKPEDTAVYYCNITDIDDSQYREYEYWGQGTQVTVSS | low polyreactivity |
| QVQLVESGGGLVQAGGSLRLSCAASGSILGIYGMGWYRQSRGKERELVAAISYSGGSTYYADSVKGRFSISRDNAKNTVYLQMNSLKPEDTAVYYCAADLTRGVSYYVDFYYWGQGTQVTVSS | low polyreactivity |
| QVQLVESGGGLVQAGGSLRLSCAASGSILGYYVMGWYRQAPGKERELVAVISSDGSTYYADSVKGRFTISRDNAKNTVYLQMNSLKPEDTAVYYCNADYYVEYDYWGQGTQVTVSS | low polyreactivity |
| QVQLVESGGGLVQAGGSLRLSCAASGSILHVYAMGWYRQAPGKERELVAAISKSGTRTYYAVSVKGRFTISRDNAKNTVYLQMNRLKPEDTAVYYCAAERSQYVYSTDPYGYDYWGQGTQVTVSS | high polyreactivity |
| QVQLVESGGGLVQAGGSLRLSCAASGSILIGNAMGWYRQAPGKERELVAAIRSGGSTNYADSVKGRFTISRDNAKNTVYLHMNSLKPEDTAVYYCARDVYVYYPYYAYDYWGQGTQVTVSS | low polyreactivity |
| QVQLVESGGGLVQAGGSLRLSCAASGSILIHYTMGWYRQAPGKERELVAAISSTGGSTYYADSVKGRFTISRDNAKNTVYLQMNSLKPEDTAVYYCNAKQYWYYFWAYQQRDVESDYWGQGTQVTVSS | low polyreactivity |
